Measurements from PMC6996649, “Rational Engineered C-Acyltransferase Transforms Sterically Demanding Acyl Donors” (ACS Catalysis, 2019).

Substrate: CC(=O)c1c(O)cc(O)cc1O
Assay: purified protein
Format: biochemical, Pseudomonas protegens
Conditions: disproportionation to DAPG, 100 mM potassium phosphate pH 7.5, 35 °C

B1: PpATaseCH (Pseudomonas protegens Pf-5) (protein)
chain: MCARRVAIVSAAYTPKPGSSRVRQTFKEMIVESAYKALKDAKMHPREIQAVAYGYHGEGISEYGGLGPTISDALGISPAPTFMSTANCTSSSVSFQMGHQMVASGEYDIVLCGGFEKMTDHFNYAEYIGSSTECEYDYFLGISHTDAFALATAEYFQKFGYAGREADVLATFGRQMRIYAQNTPTATRYGQPIPSLEVLKNSEACGSMLAWGEASGCAILVAEHLAHKYTDKPVFVRGCAYTGVSHYFGTRFHNPTLHHPGLPKDVGMAVSANSIACAEIAYKKAGITAKDIDVAQVYDLLGAGLIQMESMGICGKGQAGDFVLEGGIALDGQLPLNTDGGNIGRGHASGCDGILHITELFRQLRGESDNQVKGARIGVSQNLGGYAAHNSVIVLSND
notes: PhlABC multi-subunit acyltransferase from codon-harmonized construct, recombinant in E. coli, purified enzyme; with 2,4-diacetylphloroglucinol biosynthesis acyltransferase subunit PhlA; 2,4-diacetylphloroglucinol biosynthesis acyltransferase subunit PhlB
- Km: 290 ± 40 µM
- Vmax: 4830 µM/min
- kcat: 72 ± 8 s⁻¹
- kcat/Km: 251000 ± 15000 M⁻¹ s⁻¹
